Results reported in patent US20140087995A1 (published 2014).
Numbered stars: 1 amine (or outer) side, 2 acyl side, 3 side chain; on linkers, the order of the positions; unused ones are H or OH. Bridge positions count the residues as written; N and C are the ends. Side chains are listed from the residue outwards. Ends that are not written are not given here. * marks the point of attachment. C20 diacid = O=C(O)CCCCCCCCCCCCCCCCCCC(=O)*; γGlu = O=C(O)[C@H](CCC(=O)[*:2])N[*:1]

The binders below were run against T1, human amylin receptor (amylin 3(a) receptor: human calcitonin receptor with RAMP-3) (human, UniProt P30988 25-474; O60896 24-148) (assay: SPA displacement of 125I-rat amylin, hAmylin 3(a) receptor membranes).
T1 construct: whole, on cells; also called hAmylin-R; hAmylinR
T1 sequence (looked up) 1: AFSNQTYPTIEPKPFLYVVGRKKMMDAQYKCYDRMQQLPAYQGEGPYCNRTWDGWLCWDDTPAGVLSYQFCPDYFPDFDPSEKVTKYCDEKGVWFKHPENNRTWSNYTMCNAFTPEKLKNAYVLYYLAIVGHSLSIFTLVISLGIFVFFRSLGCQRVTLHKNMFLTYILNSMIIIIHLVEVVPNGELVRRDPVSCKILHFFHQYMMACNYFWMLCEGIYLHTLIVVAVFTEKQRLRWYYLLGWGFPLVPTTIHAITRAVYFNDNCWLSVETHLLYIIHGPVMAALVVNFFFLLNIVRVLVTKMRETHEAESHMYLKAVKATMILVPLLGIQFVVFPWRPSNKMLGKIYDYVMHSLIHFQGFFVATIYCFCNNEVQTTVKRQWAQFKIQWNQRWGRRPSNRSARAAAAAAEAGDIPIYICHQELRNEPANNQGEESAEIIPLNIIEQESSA
T1 sequence (looked up) 2: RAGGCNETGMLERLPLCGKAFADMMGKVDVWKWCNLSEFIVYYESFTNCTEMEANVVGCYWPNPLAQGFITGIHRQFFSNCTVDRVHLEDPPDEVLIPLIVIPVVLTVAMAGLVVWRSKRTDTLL
In short: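 One-site competition analysis of SPA counts yielded IC₅₀ as a measure of affinity. Membranes were at 35 ng/μL final; incubation was 120 min at 25° C, pH 7.4.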

| Binder | IC50 |
| --- | --- |
| K([γGlu-γGlu-C20 diacid])CNTATCATQRLAHFLRHSSPNFGAIPSSTNVGSNTY-NH2 (disulfide 2-7; N-terminus assumed; SMILES CC[C@H](C)[C@H](NC(=O)[C@H](C)NC(=O)CNC(=O)[C@H](Cc1ccccc1)NC(=O)[C@H](CC(N)=O)NC(=O)[C@@H]1CCCN1C(=O)[C@H](CO)NC(=O)[C@H](CO)NC(=O)[C@H](Cc1c[nH]cn1)NC(=O)[C@H](CCCNC(=N)N)NC(=O)[C@H](CC(C)C)NC(=O)[C@H](Cc1ccccc1)NC(=O)[C@H](Cc1c[nH]cn1)NC(=O)[C@H](C)NC(=O)[C@H](CC(C)C)NC(=O)[C@H](CCCNC(=N)N)NC(=O)[C@H](CCC(N)=O)NC(=O)[C@@H](NC(=O)[C@H](C)NC(=O)[C@@H]1CSSC[C@H](NC(=O)[C@@H](N)CCCCNC(=O)CC[C@H](NC(=O)CC[C@H](NC(=O)CCCCCCCCCCCCCCCCCCC(=O)O)C(=O)O)C(=O)O)C(=O)N[C@@H](CC(N)=O)C(=O)N[C@@H]([C@@H](C)O)C(=O)N[C@@H](C)C(=O)N[C@@H]([C@@H](C)O)C(=O)N1)[C@@H](C)O)C(=O)N1CCC[C@H]1C(=O)N[C@@H](CO)C(=O)N[C@@H](CO)C(=O)N[C@H](C(=O)N[C@@H](CC(N)=O)C(=O)N[C@H](C(=O)NCC(=O)N[C@@H](CO)C(=O)N[C@@H](CC(N)=O)C(=O)N[C@H](C(=O)N[C@@H](Cc1ccc(O)cc1)C(N)=O)[C@@H](C)O)C(C)C)[C@@H](C)O, also called 92; compound 92) | 0.179 nM |
| K([γGlu-C20 diacid])CNTATCATQRLAEFLRHSSPNFGAIPSSTNVGSNTP-NH2 (disulfide 2-7; N-terminus assumed; SMILES CC[C@H](C)[C@H](NC(=O)[C@H](C)NC(=O)CNC(=O)[C@H](Cc1ccccc1)NC(=O)[C@H](CC(N)=O)NC(=O)[C@@H]1CCCN1C(=O)[C@H](CO)NC(=O)[C@H](CO)NC(=O)[C@H](Cc1c[nH]cn1)NC(=O)[C@H](CCCNC(=N)N)NC(=O)[C@H](CC(C)C)NC(=O)[C@H](Cc1ccccc1)NC(=O)[C@H](CCC(=O)O)NC(=O)[C@H](C)NC(=O)[C@H](CC(C)C)NC(=O)[C@H](CCCNC(=N)N)NC(=O)[C@H](CCC(N)=O)NC(=O)[C@@H](NC(=O)[C@H](C)NC(=O)[C@@H]1CSSC[C@H](NC(=O)[C@@H](N)CCCCNC(=O)CC[C@H](NC(=O)CCCCCCCCCCCCCCCCCCC(=O)O)C(=O)O)C(=O)N[C@@H](CC(N)=O)C(=O)N[C@@H]([C@@H](C)O)C(=O)N[C@@H](C)C(=O)N[C@@H]([C@@H](C)O)C(=O)N1)[C@@H](C)O)C(=O)N1CCC[C@H]1C(=O)N[C@@H](CO)C(=O)N[C@@H](CO)C(=O)N[C@H](C(=O)N[C@@H](CC(N)=O)C(=O)N[C@H](C(=O)NCC(=O)N[C@@H](CO)C(=O)N[C@@H](CC(N)=O)C(=O)N[C@H](C(=O)N1CCC[C@H]1C(N)=O)[C@@H](C)O)C(C)C)[C@@H](C)O, also called 12; compound 12) | 0.142 nM |
| K([γGlu-C20 diacid])CNTATCATQRLAHFLRHSSPNFGAIPSSTNVGPNTY-NH2 (disulfide 2-7; N-terminus assumed; SMILES CC[C@H](C)[C@H](NC(=O)[C@H](C)NC(=O)CNC(=O)[C@H](Cc1ccccc1)NC(=O)[C@H](CC(N)=O)NC(=O)[C@@H]1CCCN1C(=O)[C@H](CO)NC(=O)[C@H](CO)NC(=O)[C@H](Cc1c[nH]cn1)NC(=O)[C@H](CCCNC(=N)N)NC(=O)[C@H](CC(C)C)NC(=O)[C@H](Cc1ccccc1)NC(=O)[C@H](Cc1c[nH]cn1)NC(=O)[C@H](C)NC(=O)[C@H](CC(C)C)NC(=O)[C@H](CCCNC(=N)N)NC(=O)[C@H](CCC(N)=O)NC(=O)[C@@H](NC(=O)[C@H](C)NC(=O)[C@@H]1CSSC[C@H](NC(=O)[C@@H](N)CCCCNC(=O)CC[C@H](NC(=O)CCCCCCCCCCCCCCCCCCC(=O)O)C(=O)O)C(=O)N[C@@H](CC(N)=O)C(=O)N[C@@H]([C@@H](C)O)C(=O)N[C@@H](C)C(=O)N[C@@H]([C@@H](C)O)C(=O)N1)[C@@H](C)O)C(=O)N1CCC[C@H]1C(=O)N[C@@H](CO)C(=O)N[C@@H](CO)C(=O)N[C@H](C(=O)N[C@@H](CC(N)=O)C(=O)N[C@H](C(=O)NCC(=O)N1CCC[C@H]1C(=O)N[C@@H](CC(N)=O)C(=O)N[C@H](C(=O)N[C@@H](Cc1ccc(O)cc1)C(N)=O)[C@@H](C)O)C(C)C)[C@@H](C)O, also called 67; compound 67) | 0.09 nM |
| {C20 diacid-γGlu}-KCNTATCATQRLAEFLRHSSPNFGAIPSSTNVGKNTY-NH2 (disulfide 2-7; SMILES CC[C@H](C)[C@H](NC(=O)[C@H](C)NC(=O)CNC(=O)[C@H](Cc1ccccc1)NC(=O)[C@H](CC(N)=O)NC(=O)[C@@H]1CCCN1C(=O)[C@H](CO)NC(=O)[C@H](CO)NC(=O)[C@H](Cc1c[nH]cn1)NC(=O)[C@H](CCCNC(=N)N)NC(=O)[C@H](CC(C)C)NC(=O)[C@H](Cc1ccccc1)NC(=O)[C@H](CCC(=O)O)NC(=O)[C@H](C)NC(=O)[C@H](CC(C)C)NC(=O)[C@H](CCCNC(=N)N)NC(=O)[C@H](CCC(N)=O)NC(=O)[C@@H](NC(=O)[C@H](C)NC(=O)[C@@H]1CSSC[C@H](NC(=O)[C@H](CCCCN)NC(=O)CC[C@H](NC(=O)CCCCCCCCCCCCCCCCCCC(=O)O)C(=O)O)C(=O)N[C@@H](CC(N)=O)C(=O)N[C@@H]([C@@H](C)O)C(=O)N[C@@H](C)C(=O)N[C@@H]([C@@H](C)O)C(=O)N1)[C@@H](C)O)C(=O)N1CCC[C@H]1C(=O)N[C@@H](CO)C(=O)N[C@@H](CO)C(=O)N[C@H](C(=O)N[C@@H](CC(N)=O)C(=O)N[C@H](C(=O)NCC(=O)N[C@@H](CCCCN)C(=O)N[C@@H](CC(N)=O)C(=O)N[C@H](C(=O)N[C@@H](Cc1ccc(O)cc1)C(N)=O)[C@@H](C)O)C(C)C)[C@@H](C)O, also called 36; compound 36) | 0.403 nM |
| KCNTATCATQRLADFLRHSSK([γGlu-γGlu-C20 diacid])NFGAIPSSTNVGSDTY-NH2 (disulfide 2-7; N-terminus assumed; SMILES CC[C@H](C)[C@H](NC(=O)[C@H](C)NC(=O)CNC(=O)[C@H](Cc1ccccc1)NC(=O)[C@H](CC(N)=O)NC(=O)[C@H](CCCCNC(=O)CC[C@H](NC(=O)CC[C@H](NC(=O)CCCCCCCCCCCCCCCCCCC(=O)O)C(=O)O)C(=O)O)NC(=O)[C@H](CO)NC(=O)[C@H](CO)NC(=O)[C@H](Cc1c[nH]cn1)NC(=O)[C@H](CCCNC(=N)N)NC(=O)[C@H](CC(C)C)NC(=O)[C@H](Cc1ccccc1)NC(=O)[C@H](CC(=O)O)NC(=O)[C@H](C)NC(=O)[C@H](CC(C)C)NC(=O)[C@H](CCCNC(=N)N)NC(=O)[C@H](CCC(N)=O)NC(=O)[C@@H](NC(=O)[C@H](C)NC(=O)[C@@H]1CSSC[C@H](NC(=O)[C@@H](N)CCCCN)C(=O)N[C@@H](CC(N)=O)C(=O)N[C@@H]([C@@H](C)O)C(=O)N[C@@H](C)C(=O)N[C@@H]([C@@H](C)O)C(=O)N1)[C@@H](C)O)C(=O)N1CCC[C@H]1C(=O)N[C@@H](CO)C(=O)N[C@@H](CO)C(=O)N[C@H](C(=O)N[C@@H](CC(N)=O)C(=O)N[C@H](C(=O)NCC(=O)N[C@@H](CO)C(=O)N[C@@H](CC(=O)O)C(=O)N[C@H](C(=O)N[C@@H](Cc1ccc(O)cc1)C(N)=O)[C@@H](C)O)C(C)C)[C@@H](C)O, also called 59; compound 59) | 1.19 nM |
